Data taken from patent US6423680B1, “Inhibitor of platelet activating factor” (HSC Research and Development Limited Partnership, priority 1998, dated 2002).

Key:
PAF = test: Calcium release assay in INDO-1 AM-loaded neutrophils; assay type: cell-based, human
Procedure: Neutrophils were isolated from heparinized venous blood collected from healthy volunteers as previously reported (Laneuville et al., Biochem. J. 295:393-397, 1993). Neutrophils (1 ml, 10^7 cells) were loaded with a […] solution of a fluorescent dye, INDO-1 AM (Calbiochem.) for use in calculating [Ca^2+]i as previously reported (Laneuville et al., supra; Reynaud and Pace-Asciak, Prostaglandins Leukot. Essent. Fatty Acids 56:9-12,1997). For each measurement, 2×10^6 cells were used in 1 ml of cell medium in a temperature-controlled (37° C.) plastic cuvette with continuous stirring. Varying concentrations of functional GM2 activator protein and non-functional truncated GM2 activator protein (i.e. 0, 0.32 and 0.8 nmol) were added to individual cuvettes. Following equilibration of the assay mix, PAF (0.002 nmol) was added and the increase in [Ca^2+]i calculated by a determination of fluorescence. Fluorescence was measured using a Perkin-Elmer fluorescence spectrophotometer as previously reported (Reynaud and Pace-Asciak, supra).
The PAF-response was inhibited by 75% when 800 pmol (15 μg/ml) of activator was present, but not at all in the presence of 800 pmol of the non-functional truncated activator.

GM2 activator protein = target: T1, GM2 activator protein (Homo sapiens, UniProt P17900); test: Fluorescence dequenching assay (R-18 transport between liposomes; ligand binding)
T1 construct: ID NO; His6 (N); made in house
T1 sequence (P17900 32-193): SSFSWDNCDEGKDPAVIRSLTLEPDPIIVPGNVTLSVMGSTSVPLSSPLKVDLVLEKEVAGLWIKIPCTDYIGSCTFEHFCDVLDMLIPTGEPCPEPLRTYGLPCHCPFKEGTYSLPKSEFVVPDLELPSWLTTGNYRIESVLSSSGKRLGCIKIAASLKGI
Procedure: The ability of the activator protein to bind GM2 ganglioside, PAF, N-formyl-Met-Leu-Phe (fMLP), or leukotriene B4 (LTB4) was assessed using a fluorescence dequenching assay. This assay was first used to evaluate the ability of the activator to transport a self-quenching fluorescence dye, R-18 (octadecylrhodamine conjugated to a saturated C-18 hydrocarbon chain) (obtained from Molecular Probes), between labeled and unlabeled liposomes (phosphatidylcholine containing large unilamellar vesicles, PC-LUV8). An increase in fluorescence over time when the activator protein and unlabeled liposomes were admixed with R-18 labeled liposomes indicates the ability of the activator to transport the R-18 dye, the fluorescence of which is proportional to concentration of dye that is transported to the unlabelled liposomes. […]
The R-18 labeled liposomes were prepared as follows. […] The column was then eluted with NHE buffer to yield a quantity of labeled liposomes sufficient for 10 assays.
In each fluorescence dequenching assay, 5 μg of activator protein was mixed with 630 nmol of unlabeled liposomes. […] The rate of increase in fluorescence emission was then determined by monitoring at 590 nm, using an excitation wavelength of 560 nm, on a 650-40 fluorometer (Perkin-Elmer). […]
The fluorescence dequenching of the R-18 liposome preparations was measured and calculated as follows. […]

β-hexosaminidase A = target: T2, β-hexosaminidase A (Homo sapiens, UniProt P06865+P07686); test: Conventional biological assay: co-factor for hydrolysis of GM2 ganglioside by β-hexosaminidase A; assay type: biochemical
T2 sequence (P06865 89-529): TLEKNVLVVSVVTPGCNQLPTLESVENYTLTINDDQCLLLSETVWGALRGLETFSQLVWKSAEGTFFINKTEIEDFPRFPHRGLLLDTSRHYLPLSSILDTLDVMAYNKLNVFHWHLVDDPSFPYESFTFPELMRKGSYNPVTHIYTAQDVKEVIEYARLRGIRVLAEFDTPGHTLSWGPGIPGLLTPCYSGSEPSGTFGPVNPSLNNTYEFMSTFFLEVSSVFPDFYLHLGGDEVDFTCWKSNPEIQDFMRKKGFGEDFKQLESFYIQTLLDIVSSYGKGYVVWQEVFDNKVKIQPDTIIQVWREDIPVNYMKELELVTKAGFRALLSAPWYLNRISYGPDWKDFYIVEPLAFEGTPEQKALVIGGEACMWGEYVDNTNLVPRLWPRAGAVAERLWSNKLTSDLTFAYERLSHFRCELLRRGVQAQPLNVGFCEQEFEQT
T2 sequence (P07686 122-556): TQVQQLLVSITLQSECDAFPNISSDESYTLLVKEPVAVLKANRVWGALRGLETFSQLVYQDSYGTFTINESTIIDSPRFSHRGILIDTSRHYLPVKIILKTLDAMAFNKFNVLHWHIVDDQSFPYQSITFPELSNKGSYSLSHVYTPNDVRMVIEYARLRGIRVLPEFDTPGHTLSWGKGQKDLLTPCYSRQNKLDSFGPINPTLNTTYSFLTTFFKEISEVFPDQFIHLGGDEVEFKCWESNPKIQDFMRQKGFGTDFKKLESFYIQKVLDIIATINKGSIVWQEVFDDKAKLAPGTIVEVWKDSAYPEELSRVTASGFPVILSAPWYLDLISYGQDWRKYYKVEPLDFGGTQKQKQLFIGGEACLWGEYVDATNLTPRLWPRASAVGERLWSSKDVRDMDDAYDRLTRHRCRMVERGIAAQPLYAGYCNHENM
T2 sequence (P17900 32-193 partner): T1 sequence (P17900 32-193)
Excerpt: The conventional biological assay for the GM2 activator involves its function as a substrate specific co-factor for the hydrolysis of GM2 ganglioside by β-hexosaminidase A. This assay (described in detail in Meier et al., J. Biol. Chem., 266:1879-1887, 1991) requires that the activator has a functional hydrophobic binding site.

transport of R-18 between labeled and unlabeled liposomes (GM2 activator protein; 5 μg activator, 37° C., pH 5, increase in fluorescence over time): found to transport R-18 | slope of fluorescence dequenching (GM2 activator protein; activator in the absence of a ligand compound): 0.256 ΔFu/ΔT(min)
B1: functional activator: Non-glycosylated GM2 activator protein from His6-tag bacterial expression system, SEQ ID NO: 2 (protein)
chain: MRGSHHHHHHGSIEGRSSFSWDNCDEGKDPAVIRSLTLEPDPIVVPGNVTLSVVGSTSVPLSSPLKVDLVLEKEVAGLWIKIPCTDYIGSCTFEHFCDVLDMLIPTGEPCPEPLRTYGLPCHCPFKEGTYSLPKSEFVVPDLELPSWLTTGNYRIESVLSSSGKRLGCIKIAASLKGI
modifications: His6-tag; non-glycosylated; His tag at residues 1 to 17
inhibition of PAF-response (PAF; 800 pmol (15 μg/ml) of activator present, PAF 0.002 nmol): 75% | release of intracellular calcium pools into the cytosol after PAF (PAF; PAF added to cuvettes containing the functional activator): significant decrease | change in [Ca2+]i on addition of extracellular activator protein alone (PAF; added to suspension of INDO-1 AM-loaded cells, before PAF): did not result in a change in [Ca^2+]i | specific activity as co-factor, compared with wild-type glycosylated precursor activator (CHO cells) (β-hexosaminidase A): functioned in a similar manner to the wildtype activator
